Experimental data from the nanobody polyreactivity screen of Harvey et al. (2022).

Assay: yeast display, Sf9 membrane polyspecificity reagent, FACS + sequencing; frameworks hold sequencing errors
Summary of the method: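 A nanobody's polyreactivity label depends on the gate it was sorted from. Yeast display cells were stained with 10% biotinylated, detergent-solubilized Sf9 membrane reagent for 1 hour at 4 °C, enriched on streptavidin microbeads and sorted by FACS. The low and high (top ~1%) gates were set on anti-HA fluorescence for expression and streptavidin fluorescence for reagent binding.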

Row | Sequence | polyreactivity (PSR sort gate)
1 | QVQLVESGGGLVQAGGSLRLSCAASGIIFYYYAMGWYRQAPGKERELVAAITGTGSRTYYADSVKGRFTISRDNAKNTVYLQMNSLKPEDTAVYYCNARSFATGSKVPARGYWGQGTQVTVSS | high polyreactivity
2 | QVQLVESGGGLVQAGGSLRLSCAASGIIFYYYAMGWYSPAPGKERELVAAISSGGSTYYADSVKGRFTISRDNAKNTVYLQMNSLKPEDTAVYYCAADPLYTIDIEYSTYGDFDYWGQGTQVTVSS | low polyreactivity
3 | QVQLVESGGGLVQAGGSLRLSCAASGIIIARNTMGWYRQAPGKERELVAAISTRGTTTYYADSVKGRFTISRDNAENTVYLQMNSLKPEDTAVYYCAAVRVHTDRYNYWGQGTQVTVSS | high polyreactivity
4 | QVQLVESGGGLVQAGGSLRLSCAASGIIIKYYAMGWYRQAPGKERELVAAITDRGGSTYYADSVKGRFTISRDNAKNTVYLQMNSLKPEDTAVYYCAARRRAYTPYYYWGQGTQVTVSS | high polyreactivity
5 | QVQLVESGGGLVQAGGSLRLSCAASGIIIRNYGMGCYRQAPGKERELVARIRWTGGSTYYADSVKGRFTISRDNAKNTVYLQMNSLKPEDTAVYYCAADIWQYSRIANYHPYDYWGQGTQVTVSS | low polyreactivity
6 | QVQLVESGGGLVQAGGSLRLSCAASGIIIVRYAMGWYRQAPGKERELVAAISRRGGSTYYADSVKGRFTISRDNAKNTVSLQMNSLKPEDTAVYYCAALLGDITGYDYWGQGTQVTVSS | high polyreactivity
7 | QVQLVESGGGLVQAGGSLRLSCAASGIILAFNAMGWYRQAPGKEREFVASISQGGSSTYYADSVKGRFTISRDNAKNTVYLQMNSLKREDTAVYYCAARSSRVRSPYQRYYYWGQGTQVTVSS | high polyreactivity
8 | QVQLVESGGGLVQAGGSLRLSCAASGIILDRNAMGWYRQAPGKERELDAAINSIGGSTYYADSVKGRFTISRDNAKNTVYLQMNSLKPEDTAVYYCAAPSTSSYYWGQGTQVTVSS | low polyreactivity
9 | QVQLVESGGGLVQAGGSLRLSCAASGIILGAYDMGLYRQAPGKERELVAAINRNGDRTYYADSVKGRFTISRDNAKNTVYLQMKSLKPEDTAVYFCAAPRVVRTFDYWGQGTQVTVSS | high polyreactivity
10 | QVQLVESGGGLVQAGGSLRLSCAASGIILHYYAMGWYRQAPGKERELVAAISARGGRTYYADSVKGRFTISRDNANNTVYLQMNSLKPEDTAVYYCAAVTVASPTRMDYWGQGTQVTVSS | high polyreactivity
11 | QVQLVESGGGLVQAGGSLRLSCAASGIILNYNAMGWYRQAPGKERELVAVIRTRGGSTYYADSVKGRFTISRDNAKNTVYLQMNSLKPEDTAVYYCAAKQIPWHRGGFGYDYWGQGSQVTVSS | low polyreactivity
12 | QVQLVESGGGLVQAGGSLRLSCAASGIILPYYAMGWYRQAPGKEREIVATISSDGTSTYYADSVKGRFTISRDNAKNTVYLQMNSLKPEDTAVYYCAARIRQNPGGDNSWGQGTQVTVSS | low polyreactivity
13 | QVQLVESGGGLVQAGGSLRLSCAASGIILRGYVIGWYRQAPGQERELVAAISTSGGRTYYADSVKGRFTISRDNAKNTVYLQMNSLKQEDTAVYYCAAVSSRLWLYDYWGQGTQVTVSS | high polyreactivity
14 | QVQLVESGGGLVQAGGSLRLSCAASGIILSDNAMGWYRQAPGKEREFVAAITGSCGSTYYADSVKGRFTISRDYAKKTDDLQMNSLKPEDTAVYYCSADGPFGYYYGHYGYWGQVTQVTVSS | low polyreactivity
15 | QVQLVESGGGLVQAGGSLRLSCAASGIILSDNAMGWYRQAPGKEREIVAAITGSGGSTYYADSVKGRFTISRDNAKNTVYLQMNSLKPEDTAVYYCAADGPYGYYYGHYGYWGQGTQVTVSS | low polyreactivity
16 | QVQLVESGGGLVQAGGSLRLSCAASGIILVNNAMGWYRQAPGTEREFVAAIRYSAGSTYYADSVKGRFTISRDTAKNTVYLQMNSLKAEDTAVYYCARRWKGGWYEYGYWGQGTQVTVAS | high polyreactivity
17 | QVQLVESGGGLVQAGGSLRLSCAASGIILWRNAMGWYRQAPGKDRELVAAITSSGGRTYYADSVKGRFTISRDNAKNTVYLQMNSLKPEDTAVYYCSAYGYSIGPYDYWGQGTQVTVSS | high polyreactivity
